B1: extracellular adherence protein (Eap), recombinant, full-length, untagged (natural protein)
chain: AAKPLDKSSSTLHHGHSNIQIPYTITVNGTSQNILSSLTFNKNQNISYKDIENKVKSVLYFNRGISDIDLRLSKQAEYTVHFKNGTKRVIDLKSGIYTADLINTSDIKAISVNVDTKKQPKDKAKANVQVPYTITVNGTSQNILSNLTFNKNQNISYKDLEGKVKSVLESNRGITDVDLRLSKQAKYTVNFKNGTKKVIDLKSGIYTANLINSSDIKSININVDTKKHIENKAKRNYQVPYSINLNGTSTNILSNLSFSNKPWTNYKNLTSQIKSVLKHDRGISEQDLKYAKKAYYTVYFKNGGKRILQLNSKNYTANLVHAKDVKRIEITVKTGTKAKADRYVPYTIAVNGTSTPILSKLKISNKQLISYKYLNDKVKSVLKSERGISDLDLKFAKQAKYTVYFKNGKKQVVNLKSDIFTPNLFSAKDIKKIDIDVKQYTKSKKK
B2: complement component C2, recombinant, full-length (natural protein)
chain: APSCPQNVNISGGTFTLSHGWAPGSLLTYSCPQGLYPSPASRLCKSSGQWQTPGATRSLSKAVCKPVRCPAPVSFENGIYTPRLGSYPVGGNVSFECEDGFILRGSPVRQCRPNGMWDGETAVCDNGAGHCPNPGISLGAVRTGFRFGHGDKVRYRCSSNLVLTGSSERECQGNGVWSGTEPICRQPYSYDFPEDVAPALGTSFSHMLGATNPTQKTKESLGRKIQIQRSGHLNLYLLLDCSQSVSENDFLIFKESASLMVDRIFSFEINVSVAIITFASEPKVLMSVLNDNSRDMTEVISSLENANYKDHENGTGTNTYAALNSVYLMMNNQMRLLGMETMAWQEIRHAIILLTDGKSNMGGSPKTAVDHIREILNINQKRNDYLDIYAIGVGKLDVDWRELNELGSKKDGERHAFILQDTKALHQVFEHMLDVSKLTDTICGVGNMSANASDQERTPWHVTIKPKSQETCRGALISDQWVLTAAHCFRDGNDHSLWRVNVGDPKSQWGKEFLIEKAVISPGFDVFAKKNQGILEFYGDDIALLKLAQKVKMSTHARPICLPCTMEANLALRRPQGSTCRDHENELLNKQSVPAHFVALNGSKLNINLKMGVEWTSCAEVVSQEKTMFPNLTDVREVVTDQFLCSGTQEDESPCKGESGGAVFLERRFRFFQVGLVSWGLYNPCLGSADKNSRKRAPRSKVPPPRDFHINLFRMQPWLRQHLGDVLNFLPL

Legend:
[1] = biological target: complement component C4b (human); assay: AUC
[2] = biological target: biotinylated C4b (human); assay: AlphaScreen or HTRF
[3] = biological target: biotinylated C4b (human); assay: SPR
[4] = biological target: biotinylated C4b (human); assay: AlphaScreen or HTRF; remark: listed apart in the source

Row | Binder | stoichiometry N [1] | Kd [2] | IC50 [3] | IC50 [4] | IC50 [2]
1 | B1 | 1 | 185 nM | 50 nM | – | –
2 | B2 | – | – | – | 180 nM | 460 nM

Source: publication PMC4258549
